# How the values were obtained:
# Assay in all cases: cell-based or functional assay
# [1] = target: HIV-1 Env of isolate 93MW959 (HIV-1)
# [2] = target: HIV-1 Env of isolate MGRM-Chronic-B-020 (HIV-1)
# [3] = target: HIV-1 Env of isolate APV_17 (HIV-1)
# [4] = target: HIV-1 Env of isolate MG RM-C-026 (HIV-1)
# [5] = target: HIV-1 Env of isolate 98IN022 (HIV-1)
# [6] = target: HIV-1 Env of isolate PVO.4 (HIV-1)
# [7] = target: HIV-1 Env of isolate 97ZA012 (HIV-1)
# [8] = target: HIV-1 Env of isolate 93TH305 (HIV-1)
# [9] = target: HIV-1 Env of isolate MGRM-Chronic-B-012 (HIV-1)
# [10] = target: HIV-1 Env of isolate TRO.11 (HIV-1)
# [11] = target: HIV-1 Env of isolate APV_13 (HIV-1)
# [12] = target: HIV-1 Env of isolate MG RM-C-025 (HIV-1)
# [13] = target: HIV-1 Env of isolate MGRM-Chronic-B-024 (HIV-1)
# [14] = target: HIV-1 Env of isolate MGRM-Chronic-B-004 (HIV-1)
# [15] = target: HIV-1 Env of isolate MGRM-Chronic-B-011 (HIV-1)
# [16] = target: HIV-1 Env of isolate MGRM-Chronic-B-018 (HIV-1)
# [17] = target: HIV-1 Env of isolate MGRM-Chronic-B-003 (HIV-1)
# [18] = target: HIV-1 Env of isolate MG RM-C-022 (HIV-1)
# [19] = target: HIV-1 Env of isolate MGRM-Chronic-B-001 (HIV-1)
# [20] = target: HIV-1 Env of isolate MG RM-C-020 (HIV-1)
# [21] = target: HIV-1 Env of isolate 6535.3 (HIV-1)
# [22] = target: HIV-1 Env of isolate MGRM-Chronic-B-008 (HIV-1)
# [23] = target: HIV-1 Env of isolate MG RM-C-023 (HIV-1)
# [24] = target: HIV-1 Env of isolate THR0.18 (HIV-1)
# [25] = target: HIV-1 Env of isolate MG RM-C-028 (HIV-1)
# [26] = target: HIV-1 Env of isolate JRFL (HIV-1)
# [27] = target: HIV-1 Env of isolate MGRM-Chronic-B-002 (HIV-1)
# [28] = target: HIV-1 Env of isolate MGRM-Chronic-B-010 (HIV-1)
# [29] = target: HIV-1 Env of isolate MG RM-C-024 (HIV-1)
# [30] = target: HIV-1 Env of isolate 93IN905 (HIV-1)
# [31] = target: HIV-1 Env of isolate SF162 (HIV-1) (UniProt P19550)
# [32] = target: HIV-1 Env of isolate SC422661.8 (HIV-1)
# [33] = target: HIV-1 Env of isolate VLGCB3 (HIV-1)
# [34] = target: HIV-1 Env of isolate MG RM-C-027 (HIV-1)
# [35] = target: HIV-1 Env of isolate MGRM-Chronic-B-017 (HIV-1)
# [36] = target: HIV-1 Env of isolate MGRM-Chronic-B-023 (HIV-1)
# [37] = target: HIV-1 Env of isolate QH0692.42 (HIV-1)
# [38] = target: HIV-1 Env of isolate 92 BR 020 (HIV-1)
# [39] = target: HIV-1 Env of isolate TRJ04551.58 (HIV-1)
# [40] = target: HIV-1 Env of isolate NL43 (HIV-1)
# [41] = target: HIV-1 Env of isolate CAAN.A2 (HIV-1)
# [42] = target: HIV-1 Env of isolate JRCSF (HIV-1) (UniProt P20871)
# [43] = target: HIV-1 Env of isolate APV_6 (HIV-1)
substance,measurement,setting,value
PGT-121 monoclonal antibody (4838_L06; 4873_E03),neutralization IC50,[1],0.013 µg/mL
same,neutralization IC50,[2],0.004 µg/mL
same,neutralization IC50,[3],0.066 µg/mL
same,neutralization IC50,[4],0.002 µg/mL
same,neutralization IC50,[5],0.007 µg/mL
same,neutralization IC50,[6],0.137 µg/mL
same,neutralization IC50,[7],0.002 µg/mL
same,neutralization IC50,[8],0.007 µg/mL
same,neutralization IC50,[9],0.036 µg/mL
same,neutralization IC50,[10],0.008 µg/mL
same,neutralization IC50,[11],0.251 µg/mL
same,neutralization IC50,[12],46.8 µg/mL
same,neutralization IC50,[13],0.195 µg/mL
same,neutralization IC50,[14],0.009 µg/mL
same,neutralization IC50,[15],> 50 µg/mL
same,neutralization IC50,[16],> 50 µg/mL
same,neutralization IC50,[17],0.011 µg/mL
same,neutralization IC50,[18],0.015 µg/mL
same,neutralization IC50,[19],0.102 µg/mL
same,neutralization IC50,[20],> 50 µg/mL
same,neutralization IC50,[21],0.005 µg/mL
same,neutralization IC50,[22],0.007 µg/mL
same,neutralization IC50,[23],0.017 µg/mL
same,neutralization IC50,[24],> 50 µg/mL
same,neutralization IC50,[25],0.472 µg/mL
same,neutralization IC50,[26],0.021 µg/mL
same,neutralization IC50,[27],0.386 µg/mL
same,neutralization IC50,[28],0.014 µg/mL
same,neutralization IC50,[29],0.052 µg/mL
same,neutralization IC50,[30],0.005 µg/mL
same,neutralization IC50,[31],0.005 µg/mL
same,neutralization IC50,[32],0.098 µg/mL
same,neutralization IC50,[33],0.005 µg/mL
same,neutralization IC50,[34],0.011 µg/mL
same,neutralization IC50,[35],> 50 µg/mL
same,neutralization IC50,[36],0.005 µg/mL
same,neutralization IC50,[37],0.823 µg/mL
same,neutralization IC50,[38],0.014 µg/mL
same,neutralization IC50,[39],7.09 µg/mL
same,neutralization IC50,[40],> 50 µg/mL
same,neutralization IC50,[41],0.011 µg/mL
same,neutralization IC50,[42],0.027 µg/mL
PGT-122 monoclonal antibody (4877_D15),neutralization IC50,[1],0.016 µg/mL
same,neutralization IC50,[2],0.005 µg/mL
same,neutralization IC50,[3],0.25 µg/mL
same,neutralization IC50,[4],0.006 µg/mL
same,neutralization IC50,[5],0.032 µg/mL
same,neutralization IC50,[6],0.689 µg/mL
same,neutralization IC50,[7],0.004 µg/mL
same,neutralization IC50,[8],0.013 µg/mL
same,neutralization IC50,[9],0.066 µg/mL
same,neutralization IC50,[10],0.011 µg/mL
same,neutralization IC50,[11],0.778 µg/mL
same,neutralization IC50,[12],8.69 µg/mL
same,neutralization IC50,[13],2.31 µg/mL
same,neutralization IC50,[43],0.019 µg/mL
same,neutralization IC50,[14],0.008 µg/mL
same,neutralization IC50,[15],> 50 µg/mL
same,neutralization IC50,[16],> 50 µg/mL
same,neutralization IC50,[17],0.008 µg/mL
same,neutralization IC50,[18],0.012 µg/mL
same,neutralization IC50,[19],0.138 µg/mL
same,neutralization IC50,[20],14 µg/mL
same,neutralization IC50,[21],0.006 µg/mL
same,neutralization IC50,[22],0.017 µg/mL
same,neutralization IC50,[23],0.027 µg/mL
same,neutralization IC50,[24],> 50 µg/mL
same,neutralization IC50,[25],2.22 µg/mL
same,neutralization IC50,[26],0.026 µg/mL
same,neutralization IC50,[27],1.8 µg/mL
same,neutralization IC50,[28],0.018 µg/mL
same,neutralization IC50,[29],0.102 µg/mL
same,neutralization IC50,[30],0.013 µg/mL
same,neutralization IC50,[31],0.009 µg/mL
same,neutralization IC50,[32],0.103 µg/mL
same,neutralization IC50,[33],0.008 µg/mL
same,neutralization IC50,[34],0.039 µg/mL
same,neutralization IC50,[35],5.66 µg/mL
same,neutralization IC50,[36],0.01 µg/mL
same,neutralization IC50,[37],0.493 µg/mL
same,neutralization IC50,[38],0.021 µg/mL
same,neutralization IC50,[39],> 50 µg/mL
same,neutralization IC50,[40],> 50 µg/mL
same,neutralization IC50,[41],0.011 µg/mL
same,neutralization IC50,[42],0.057 µg/mL

# — patent US20160264649A1
